The results in this text go back to IntAct's records for PubMed 29039417.

The chains are these.
B1: BBSome complex member BBS2 (Homo sapiens), Q9BXC9 (parent)
chain: MLLPVFTLKLRHKISPRMVAIGRYDGTHPCLAAATQTGKVFIHNPHTRNQHVSASRVFQSPLESDVSLLSINQAVSCLTAGVLNPELGYDALLVGTQTNLLAYDVYNNSDLFYREVADGANAIVLGTLGDISSPLAIIGGNCALQGFNHEGSDLFWTVTGDNVNSLALCDFDGDGKKELLVGSEDFDIRVFKEDEIVAEMTETEIVTSLCPMYGSRFGYALSNGTVGVYDKTSRYWRIKSKNHAMSIHAFDLNSDGVNELITGWSNGKVDARSDRTGEVIFKDNFSSAIAGVVEGDYRMDGHIQLICCSVDGEIRGYLPGTAEMRGNLMDTSAEQDLIRELSQKKQNLLLELRNYEENAKAELASPLNEADGHRGIIPANTRLHTTLSVSLGNETQTAHTELRISTSNDTIIRAVLIFAEGIFTGESHVVHPSIHNLSSSICIPIVPPKDVPVDLHLKAFVGYRSSTQFHVFESTRQLPRFSMYALTSLDPASEPISYVNFTIAERAQRVVVWLGQNFLLPEDTHIQNAPFQVCFTSLRNGGHLHIKIKLSGEITINTDDIDLAGDIIQSMASFFAIEDLQVEADFPVYFEELRKVLVKVDEYHSVHQKLSADMADHSNLIRSLLVGAEDARLMRDMKTMKSRYMELYDLNRDLLNGYKIRCNNHTELLGNLKAVNQAIQRAGRLRVGKPKNQVITACRDAIRSNNINTLFKIMRVGTASS
partner: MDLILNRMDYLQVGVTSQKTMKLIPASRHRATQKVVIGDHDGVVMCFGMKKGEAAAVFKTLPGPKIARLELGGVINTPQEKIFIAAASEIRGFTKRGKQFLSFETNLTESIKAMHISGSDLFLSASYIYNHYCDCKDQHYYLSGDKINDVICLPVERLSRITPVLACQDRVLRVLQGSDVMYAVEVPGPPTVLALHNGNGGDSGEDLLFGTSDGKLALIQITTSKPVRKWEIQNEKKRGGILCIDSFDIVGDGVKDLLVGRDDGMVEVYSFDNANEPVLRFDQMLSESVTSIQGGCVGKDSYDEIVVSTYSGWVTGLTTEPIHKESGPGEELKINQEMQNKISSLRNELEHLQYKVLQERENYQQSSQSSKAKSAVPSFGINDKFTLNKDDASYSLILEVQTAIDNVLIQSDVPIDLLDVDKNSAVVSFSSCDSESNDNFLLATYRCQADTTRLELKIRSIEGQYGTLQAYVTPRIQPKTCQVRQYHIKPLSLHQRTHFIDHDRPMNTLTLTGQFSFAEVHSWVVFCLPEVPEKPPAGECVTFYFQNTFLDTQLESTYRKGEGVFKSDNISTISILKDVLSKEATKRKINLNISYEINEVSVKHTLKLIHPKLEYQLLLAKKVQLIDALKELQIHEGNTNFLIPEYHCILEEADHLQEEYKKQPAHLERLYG

Variants of B1 are the subject of this assay. Particulars: with BBS7, Q8IWZ6-2.
In the case of M640A, the “effect of a mutation on the interaction” value is reported as “with no effect”. Under M640K stands “with no effect”; under M640E, “with no effect”; under E646A, “with no effect”. For the variant E646K, the “effect of a mutation on the interaction” value is recorded as “with no effect”.

In the case of D636A, the “effect of a mutation on the interaction” value was “with no effect”. Under D636E stands “with no effect”; under D636G, “disrupting interaction strength”; under D636K, “disrupting interaction strength”. As for M634K, the “effect of a mutation on the interaction” value was “with no effect”. Consider M634A, for which the “effect of a mutation on the interaction” value is “with no effect”. Regarding M634E, the “effect of a mutation on the interaction” value is “with no effect”. The entry for D630E is “with no effect”; for D630K it is “with no effect”; for D630A it is “with no effect”. Regarding G627E, the “effect of a mutation on the interaction” value is recorded as “with no effect”. On to G627A, for which the “effect of a mutation on the interaction” value is listed as “with no effect”. The entry for G627K is “with no effect”. Take L647A: the “effect of a mutation on the interaction” value is reported as “disrupting interaction strength”. Under L647K stands “with no effect”; under L647E, “disrupting interaction strength”; under T639A, “with no effect”. The entry for T639K is “with no effect”; for T639E it is “with no effect”; for L650E it is “with no effect”.

With L650A, the “effect of a mutation on the interaction” value is listed as “with no effect”. Turning to L650K, the “effect of a mutation on the interaction” value is “with no effect”. Consider K638E, for which the “effect of a mutation on the interaction” value was “with no effect”. Under K638A stands “with no effect”; under R622E, “with no effect”. Under R622A stands “with no effect”. Under R622K stands “with no effect”; under I621A, “with no effect”. As for I621K, the “effect of a mutation on the interaction” value is “with no effect”.

As to I621E, the “effect of a mutation on the interaction” value was “with no effect”. The entry for R635C is “disrupting interaction strength”.

Regarding R635E, the “effect of a mutation on the interaction” value is “with no effect”. In the case of R635A, the “effect of a mutation on the interaction” value is given as “with no effect”. For the variant R635K, the “effect of a mutation on the interaction” value is listed as “with no effect”. Under K641E stands “with no effect”; under K641A, “with no effect”. Under S623A stands “with no effect”. Under S623K stands “with no effect”; under S623E, “with no effect”; under N651E, “with no effect”.

As to N651A, the “effect of a mutation on the interaction” value is given as “with no effect”. The entry for N651K is “with no effect”; for S642A it is “with no effect”; for S642E it is “with no effect”.

Regarding S642K, the “effect of a mutation on the interaction” value is listed as “with no effect”.

As to R632E, the “effect of a mutation on the interaction” value is “with no effect”. Under R632K stands “with no effect”; under R632A, “with no effect”; under R643A, “with no effect”. For the variant R643K, the “effect of a mutation on the interaction” value is recorded as “with no effect”. As to R643E, the “effect of a mutation on the interaction” value is “with no effect”. Under M637K stands “with no effect”.

For the variant M637E, the “effect of a mutation on the interaction” value is on record as “with no effect”.

Take M637S: the “effect of a mutation on the interaction” value is given as “disrupting interaction strength”. On to M637A, for which the “effect of a mutation on the interaction” value was “with no effect”.

Regarding A628E, the “effect of a mutation on the interaction” value was “with no effect”.

With A628K, the “effect of a mutation on the interaction” value is “disrupting interaction strength”. Regarding E629A, the “effect of a mutation on the interaction” value is “with no effect”. For the variant E629K, the “effect of a mutation on the interaction” value is “with no effect”. Under D649A stands “with no effect”; under D649K, “with no effect”.

Regarding D649E, the “effect of a mutation on the interaction” value is recorded as “with no effect”. Under V626A stands “with no effect”; under V626E, “with no effect”. On to V626K, for which the “effect of a mutation on the interaction” value was “with no effect”. The entry for L633E is “with no effect”; for L633K it is “with no effect”; for L633A it is “with no effect”. With M645A, the “effect of a mutation on the interaction” value is given as “with no effect”.

As to M645K, the “effect of a mutation on the interaction” value is “with no effect”. On to M645E, for which the “effect of a mutation on the interaction” value is “with no effect”. L624A: the “effect of a mutation on the interaction” value is recorded as “with no effect”. With L624K, the “effect of a mutation on the interaction” value is “with no effect”. With L624E, the “effect of a mutation on the interaction” value is listed as “with no effect”. A631K: the “effect of a mutation on the interaction” value was “with no effect”.

As for A631E, the “effect of a mutation on the interaction” value is “with no effect”. Under Y644A stands “with no effect”. Under Y644E stands “disrupting interaction strength”; under Y644K, “with no effect”. The entry for L625A is “with no effect”. For the variant L625K, the “effect of a mutation on the interaction” value is reported as “with no effect”. Under L625E stands “with no effect”; under Y648A, “with no effect”. In the case of Y648E, the “effect of a mutation on the interaction” value is “with no effect”. With Y648K, the “effect of a mutation on the interaction” value is given as “with no effect”.
